In one test the target is α4-CFP (mouse) (UniProt O70174). The test is described as follows: acceptor photobleaching FRET, N2a cells, untagged β2 coexpressed.
Test [1] has as its target CFP-labeled GluCl β subunit (UniProt Q17328). The test is described as follows: acceptor photobleaching FRET, N2a cells; specificity control.
The next test deals with β2-CFP (mouse) (UniProt Q9ERK7). As to the kind of experiment: acceptor photobleaching FRET, N2a cells, within the same α4β2 pentamer.
Sequence of β2-CFP (mouse) (Q9ERK7 26-501): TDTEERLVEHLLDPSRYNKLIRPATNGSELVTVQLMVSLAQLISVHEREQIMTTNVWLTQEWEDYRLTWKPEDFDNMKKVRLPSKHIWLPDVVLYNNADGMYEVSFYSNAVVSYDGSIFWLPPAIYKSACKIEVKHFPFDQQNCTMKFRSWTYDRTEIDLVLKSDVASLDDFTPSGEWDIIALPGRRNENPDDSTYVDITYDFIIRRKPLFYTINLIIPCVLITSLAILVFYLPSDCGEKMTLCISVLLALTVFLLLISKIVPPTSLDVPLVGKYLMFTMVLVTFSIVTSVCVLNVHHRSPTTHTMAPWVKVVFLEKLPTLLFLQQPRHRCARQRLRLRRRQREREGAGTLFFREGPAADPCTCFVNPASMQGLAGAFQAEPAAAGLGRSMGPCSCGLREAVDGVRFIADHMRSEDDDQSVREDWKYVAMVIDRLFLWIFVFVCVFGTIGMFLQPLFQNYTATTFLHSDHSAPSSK

Sequence of CFP-labeled GluCl β subunit (Q17328 23-434): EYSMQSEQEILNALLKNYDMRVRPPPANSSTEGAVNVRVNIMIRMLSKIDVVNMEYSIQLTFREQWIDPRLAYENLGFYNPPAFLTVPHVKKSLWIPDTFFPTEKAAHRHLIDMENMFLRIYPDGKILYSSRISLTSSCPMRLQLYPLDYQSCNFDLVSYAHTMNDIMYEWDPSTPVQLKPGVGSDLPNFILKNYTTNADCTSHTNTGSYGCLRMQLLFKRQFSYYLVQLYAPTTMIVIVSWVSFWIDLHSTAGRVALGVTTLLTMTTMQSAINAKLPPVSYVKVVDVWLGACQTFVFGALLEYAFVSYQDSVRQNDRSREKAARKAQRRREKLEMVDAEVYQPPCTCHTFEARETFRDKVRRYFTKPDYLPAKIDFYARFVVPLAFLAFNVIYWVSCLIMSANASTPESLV
Sequence of β2-YFP (Q9ERK7 26-501): as the sequence (Q9ERK7 26-501) above
Sequence of α4-CFP (mouse) (O70174 31-629): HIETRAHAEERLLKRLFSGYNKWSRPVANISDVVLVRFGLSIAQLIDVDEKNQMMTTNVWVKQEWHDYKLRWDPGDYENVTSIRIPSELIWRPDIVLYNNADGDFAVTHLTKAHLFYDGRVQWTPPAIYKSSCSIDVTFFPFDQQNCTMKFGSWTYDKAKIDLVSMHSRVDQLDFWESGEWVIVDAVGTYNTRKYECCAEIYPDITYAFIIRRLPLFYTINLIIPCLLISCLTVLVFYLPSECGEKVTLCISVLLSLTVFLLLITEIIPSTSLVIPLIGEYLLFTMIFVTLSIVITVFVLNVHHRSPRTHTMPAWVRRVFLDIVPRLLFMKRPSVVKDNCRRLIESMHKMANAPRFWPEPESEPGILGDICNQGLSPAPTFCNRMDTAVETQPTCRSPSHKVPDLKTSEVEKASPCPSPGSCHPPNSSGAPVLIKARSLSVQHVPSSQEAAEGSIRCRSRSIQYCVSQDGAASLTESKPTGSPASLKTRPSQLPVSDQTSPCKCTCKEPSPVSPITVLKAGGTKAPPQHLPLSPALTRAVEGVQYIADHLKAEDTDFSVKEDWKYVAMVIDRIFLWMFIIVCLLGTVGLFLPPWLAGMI
Sequence of α4-YFP (O70174 31-629): as above

“α4-YFP (from UniProt O70174 31-629) (receptor)”: in the test with α4-CFP (mouse), the FRET E amounted to 22.2%. The substance “α6-YFP^A405 (from UniProt Q9R0W9 31-405; Q9R0W9 406-494) (receptor)” yielded an FRET E in test [1] of 14%. “β2-YFP (from UniProt Q9ERK7 26-501) (receptor)” gave an FRET E in the test with β2-CFP (mouse) of 16.3%. Substance “β3-YFP^P379 (from UniProt Q8BMN3 31-379; Q8BMN3 380-464) (receptor)” yielded an FRET E in test [1] of 6%.

The values above are taken from patent publication US20090100532A1, “TRANSGENIC MICE EXPRESSING HYPERSENSITIVE NICOTINIC RECEPTORS” (CALIFORNIA INSTITUTE OF TECHNOLOGY, priority 2007, published 2009).
